Data on one molecule can be found in publication PMC13503762 (Nature Communications, 2026).

The target in the assay is SARS-CoV-2 M protein (purified, in LMNG/CHS detergent) (SARS-CoV-2, UniProt P0DTC5). Kind of assay: cryo-EM structure. Conditions: both partners purified.

B1: short conformation Fab (scFab) (Fab, V domains shown)
VH: EVQLQQSGPELVKPGASMKISCKTSGYSFTGYTMNWVKQSHGKNLEWIGLINPYNGDTSYNQKFKGKATLTVDKSSSTAYMELLSLTSEDSAVYYCEVINTYWGQGTLVTVSA
VL: DIVMTQSPASLAVSLGQRATISCKASQSIDYDGDNYMNWYQQKPGQPPKLLIYTTSNLESGIPARFSGSGSGTDFTLNIHPVEEGDAATYYCQQNNEDPYTFGGGTKLEIK
notes: also called short conformation-selective Fab; Fab targeting M_(short)
As to B1, the binding result is listed as “binds”.
